Experimental data reported in PMC12695660, “Genome-scale CRISPR screens identify PTGES3 as a direct modulator of androgen receptor function in advanced prostate cancer”.

Tests used:
[1] = target: T1, ARΔNTD (AR DBD-hinge-LBD);Smt3-PTGES3 (mouse;human, UniProt P19091;Q15185 528-899;1-160, |); experiment: fluorescence polarization; 1 uM DHT; equimolar Smt3-PTGES3; binding stronger than ARΔNTD alone (P=0.0254); FP/EMSA: 150 mM NaCl, 20 mM HEPES pH 7.5, 1 mM TCEP, 1 uM DHT, 10% glycerol, 0.05% IGEPAL CA-630, 100 nM DNA; proteins preincubated 30 min on ice at 8 uM; assay temperature not stated. Mass photometry: same buffer at 5 uM, flash diluted into PBS to 10 nM; conditions: protein: recombinant;recombinant; tags: ;N-terminal Smt3; label: 5'-fluorescein (6-FAM) on sense strand; blunt
T1 sequence (P19091 528-899, stated change not applied, chain 1 of 2): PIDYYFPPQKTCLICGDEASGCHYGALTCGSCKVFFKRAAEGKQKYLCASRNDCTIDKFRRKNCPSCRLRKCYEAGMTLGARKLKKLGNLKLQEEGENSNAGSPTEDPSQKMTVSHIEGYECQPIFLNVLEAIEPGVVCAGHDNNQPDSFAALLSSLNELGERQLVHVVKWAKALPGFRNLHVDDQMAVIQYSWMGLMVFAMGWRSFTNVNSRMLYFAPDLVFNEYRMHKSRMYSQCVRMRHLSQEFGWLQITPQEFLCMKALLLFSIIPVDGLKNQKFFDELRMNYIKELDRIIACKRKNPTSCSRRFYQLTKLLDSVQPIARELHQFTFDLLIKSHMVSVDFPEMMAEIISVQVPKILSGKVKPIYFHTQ
T1 sequence (Q15185 whole entry, stated change not applied, chain 2 of 2, the tested form may be a part): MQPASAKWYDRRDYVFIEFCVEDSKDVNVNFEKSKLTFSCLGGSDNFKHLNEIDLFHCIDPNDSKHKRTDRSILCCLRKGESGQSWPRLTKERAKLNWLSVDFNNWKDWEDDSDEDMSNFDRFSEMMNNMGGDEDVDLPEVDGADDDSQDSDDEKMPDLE

[2] = target: ARΔNTD (AR DBD-hinge-LBD);PTGES3 (tagless) (mouse;human, UniProt P19091;Q15185 528-899;1-160, |); experiment: fluorescence polarization; 1 uM DHT; equimolar PTGES3; binding stronger than ARΔNTD alone (P=0.0337); FP/EMSA: 150 mM NaCl, 20 mM HEPES pH 7.5, 1 mM TCEP, 1 uM DHT, 10% glycerol, 0.05% IGEPAL CA-630, 100 nM DNA; proteins preincubated 30 min on ice at 8 uM; assay temperature not stated. Mass photometry: same buffer at 5 uM, flash diluted into PBS to 10 nM; conditions: protein: recombinant;recombinant; tags: ;Smt3 tag cleaved by Ulp1; label: 5'-fluorescein (6-FAM) on sense strand; blunt
ARΔNTD (AR DBD-hinge-LBD);PTGES3 (tagless), sequence (P19091 528-899, stated change not applied, chain 1 of 2): as the sequence (P19091 528-899, stated change not applied, chain 1 of 2) above
ARΔNTD (AR DBD-hinge-LBD);PTGES3 (tagless), sequence (Q15185 whole entry, stated change not applied, chain 2 of 2, the tested form may be a part): as the sequence (Q15185 whole entry, stated change not applied, chain 2 of 2, the tested form may be a part) above

[3] = target: ARΔNTD (AR DBD-hinge-LBD) (mouse, UniProt P19091 528-899); experiment: fluorescence polarization; 1 uM DHT; no PTGES3; apparent Kd only plotted; FP/EMSA: 150 mM NaCl, 20 mM HEPES pH 7.5, 1 mM TCEP, 1 uM DHT, 10% glycerol, 0.05% IGEPAL CA-630, 100 nM DNA; proteins preincubated 30 min on ice at 8 uM; assay temperature not stated. Mass photometry: same buffer at 5 uM, flash diluted into PBS to 10 nM; conditions: protein: recombinant; chain copies: 2; label: 5'-fluorescein (6-FAM) on sense strand; blunt
ARΔNTD (AR DBD-hinge-LBD), sequence (P19091 528-899, stated change not applied): as the sequence (P19091 528-899, stated change not applied, chain 1 of 2) above

[4] = target: T1, ARΔNTD (AR DBD-hinge-LBD);Smt3-PTGES3; experiment: mass photometry; Smt3-PTGES3 restricts formation of heterogeneous complexes; FP/EMSA: 150 mM NaCl, 20 mM HEPES pH 7.5, 1 mM TCEP, 1 uM DHT, 10% glycerol, 0.05% IGEPAL CA-630, 100 nM DNA; proteins preincubated 30 min on ice at 8 uM; assay temperature not stated. Mass photometry: same buffer at 5 uM, flash diluted into PBS to 10 nM; conditions: protein: recombinant;recombinant; tags: ;N-terminal Smt3; blunt
[5] = target: ARDBD;PTGES3 (tagless) (mouse;human, UniProt P19091;Q15185 528-631;1-160, |); experiment: EMSA; equimolar PTGES3 augments ARDBD binding; PTGES3 variant (tagless or Smt3) not stated; FP/EMSA: 150 mM NaCl, 20 mM HEPES pH 7.5, 1 mM TCEP, 1 uM DHT, 10% glycerol, 0.05% IGEPAL CA-630, 100 nM DNA; proteins preincubated 30 min on ice at 8 uM; assay temperature not stated. Mass photometry: same buffer at 5 uM, flash diluted into PBS to 10 nM; conditions: protein: recombinant;recombinant; tags: ;Smt3 tag cleaved by Ulp1; label: 5'-fluorescein (6-FAM) on sense strand; blunt
ARDBD;PTGES3 (tagless), sequence (P19091 528-631, chain 1 of 2): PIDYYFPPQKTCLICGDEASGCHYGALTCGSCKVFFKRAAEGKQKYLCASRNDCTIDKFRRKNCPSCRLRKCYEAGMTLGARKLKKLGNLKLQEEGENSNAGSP
ARDBD;PTGES3 (tagless), sequence (Q15185 whole entry, chain 2 of 2): as the sequence (Q15185 whole entry, stated change not applied, chain 2 of 2, the tested form may be a part) above

B1: ARE 36 bp (dsDNA)
DNA 1: TAAAATGTAAACAACGTAGAACATCAGGAACTCCGG
DNA 2: CCGGAGTTCCTGATGTTCTACGTTGTTTACATTTTA
- binding result [1]: binds
- binding result [2]: binds
- binding result [3]: binds

B2: ARE 36 bp, unlabeled (mass photometry) (dsDNA)
DNA 1: TAAAATGTAAACAACGTAGAACATCATGTTCTCCGG
DNA 2: CCGGAGAACATGATGTTCTACGTTGTTTACATTTTA
- binding result [4]: binds

B3: Canonical ARE 36 bp (dsDNA)
DNA 1: TAAAATGTAAACAACGTAGAACATCATGTTCTCCGG
DNA 2: CCGGAGAACATGATGTTCTACGTTGTTTACATTTTA
- binding result [5]: binds
